Measured values: the supplement of paper PMC9170038

Tested on: K4 kissing-loop RNA reporter
Experiment: apparent KD of K4 kissing-loop reporter; higher = weaker reporter binding
Settings: Eterna round: R107
Method: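 RNA-MaP round R107: designed RNA switches with theophylline, tryptophan, arginine or FMN aptamers are transcribed on-chip within common flanks. They are titrated with a labelled K4 kissing-loop RNA reporter in RNA-MaP buffer (100 mM Tris pH 7.5, 80 mM KCl, 4 mM MgCl2), without ligand or with the indicated ligand. Median apparent KD per design.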

[1] = input ligand: theophylline 20 uM
[2] = input ligand: tryptophan 2.4 mM
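Also: bound reporter read as fluorescence of individual clusters on recovered sequencing chips by microscopy, with normalized cluster intensities fitted with a binding model.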

| Sequence | apparent KD of K4 kissing-loop reporter (input ligand: FMN 200 uM) [µM] | apparent KD of K4 kissing-loop reporter (input ligand: arginine 13.2 mM) [µM] | apparent KD of K4 kissing-loop reporter (input ligand: none) [µM] | apparent KD of K4 kissing-loop reporter [1] [µM] | apparent KD of K4 kissing-loop reporter [2] [µM] |
| --- | --- | --- | --- | --- | --- |
| AACGGCCAGUCGGCCGCCACUCGAUGCAGUGAUGUUGCUAACUUUCUAAAAGAGUGAUGUUCAUGGAGGACCGGGACUAGUGUAA [#30 K4 Tryptophan B Exclusion] | 0.317 | 0.244 | 0.291 | 0.255 | 0.241 |
| GCUAUGGUAGGAAGGAGCGCUUAUUCAUUAAUAAGAGUGAUGUUCGAUAAUGAAUAUUUAUAGCAGGUAGGUCGCCUACUAUAGC [Arginine B K4 2] | 0.3 | 0.223 | 0.23 | 0.206 | 0.237 |
| GAGCGGUGGAGGUUACCGCUAUUCUGAGAAGGAGCGCAGAUGACUGCAGGUAGGUCGCUUAGAGCUUGCAGUGAUGUUGCAAGUU [Edrirama] | 0.197 | 0.177 | 0.213 | 0.193 | 0.213 |
| ACCUGUAGUGAUGUUACUGGUGGUUAGGAAGGAGCGCCCGCGUGGGCAGGUAGGUCGCCUAAGCUAUGUGGGAAACCGCAUAUUG [#14 K4 Arginine A Same State] | 0.0755 | 0.0738 | 0.0769 | 0.0753 | 0.0933 |
| UUGAUAUGAUAAUAUCCUGUUUGAUAAAGACAGGAUAUAGAAAAUACUAGAAGGGUCAUUAUAUGCAGUGAUGUUGCAAAUAAGU [Exclusion FMN A Gf 23] | 0.0422 | 0.0673 | 0.0457 | 0.0662 | 0.0376 |
| AGCAUUUUCAGAAGGAGCGUGAAUUAUUCUUAAUUAUAUUAUACGAGUGAUGUUCGUGUUUCACAGGUAGGUCGCUGAUAUAGCA [JR_SSArginiB_Sub004] | 0.0514 | 0.0903 | 0.0477 | 0.0983 | 0.0455 |
| UUAUUGAGCGUUUGUGAGAAGGCGUUCUUCAAGGAUAUCGACGUAACGAGAAGGUGAUUCGUUCCGAGUGAUGUUCGGUACGGGC [theeternabot_sameState_KL_FMN_A_4] | 0.222 | 0.185 | 0.234 | 0.24 | 0.199 |
| CAACCCUGCUUUUUCGAGUUUUAGGGAUGACGAGGACCGGUACGGCCGCCACUCGACUACACUGUUCAGUGAUGUUGAACGGCGG [Teveza] | 0.165 | 0.06 | 0.116 | 0.148 | 0.267 |
| CGAAGAAAGGUAUGUGGGAUCUGCGCGUAACGAGGACCGGUACGGCCGCCACUCGACGUCGCAUACGGCCCAGUGAUGUUGGGUG [theeternabot_sameState_KL_Trp_A_14] | 0.074 | 0.0559 | 0.0754 | 0.0749 | 0.0534 |
| AAAUAAAGCAGUCACCCAGUGAUGUUGGAAGGAGCGUGCGAAAGCACAGGUAGGUCGCCGAUAAAGGACAAAGUCCGUGGCUGCA [#SwitchBubble 29 #K4Early] | 0.275 | 0.35 | 0.253 | 0.279 | 0.19 |
| UGAUACCAGACGGCCGCCACUCCCGCAGGUCAAAGACCUGCGAAGAUGGUUCUUCAGUGAUGUUGGAGGACCGGGUCUGGUAUCU [FiskerMod 23 - Jieux - Exclusion - Tryptophan B] | 0.173 | 0.128 | 0.137 | 0.14 | 0.314 |
| ACGUUCGGAACGGCCGCCACUAUGGGCAGUGAUGUUGCCCAUAACCGGUUUUGCGUCAGAUCCCUUAGGACCGGGUUCUGGUAUA [Soonlesoso] | 0.0784 | 0.0686 | 0.0734 | 0.0658 | 0.0752 |
| AGUCCACUCUAAAGAGUGGACCUAAGGGAUACCAGUGAUGUUGGUCACCCUUGGCAGCCCAGGGCCCGGGAUAAACCCGGGCCCA [#09 K4 Theophylline A Exclusion] | 0.12 | 0.1 | 0.113 | 0.099 | 0.113 |
| CGAGUGAUGUUCGAAGAGUUGUUGAGCGAUACCAGCCAGGAAACUGGCCCUUGGCAGCGUAAUAAAUAAAUAAAUAAAUGAUCAC [whbob_Ex_Theo_A_th61] | 0.364 | 0.464 | 0.41 | 0.635 | 0.333 |
| UUUAUUAAGACGGCCGCCACUGAAUUAGAGUGAUGUUCUAAAAUUUUUAAUUUUUUUUUUUUCAGCAGGACCGGGUCAAUUAUUA [JR_SSTryptoB_Sub012] | 0.128 | 0.0953 | 0.116 | 0.142 | 0.0945 |
| GGUCCGCACAUGAGUGAUGUUCAUGUAGAUACCAGUAUCGAAAGAUACCCUUGGCAGCUACGGCACGGACCGGCGGGAAACCGCC | 0.213 | 0.2 | 0.194 | 0.291 | 0.184 |

| Sequence | apparent KD of K4 kissing-loop reporter (input ligand: FMN 200 uM) [µM] | apparent KD of K4 kissing-loop reporter (input ligand: arginine 13.2 mM) [µM] | apparent KD of K4 kissing-loop reporter (input ligand: none) [µM] | apparent KD of K4 kissing-loop reporter [1] [µM] | apparent KD of K4 kissing-loop reporter [2] [µM] |
| --- | --- | --- | --- | --- | --- |
| AGCGUCCCUACGGCCGCCACUGGGAGUGAUGUUCCCAGGUUAGGCCUGAGGAUACUAAGGAUCGCCAGGACCGGGUAGCGACCAU [Azaonbe] | 0.0885 | 0.0811 | 0.0803 | 0.0692 | 0.0923 |
| GCUAUGGUAGGAAGGAGCGCUUGUUCGGUCAUAUGAGUGAUGUUCGAGACUGAGCAUUUAUAGCAGGUAGGUCGCCUACUAUAGC [Arginine B K4 10] | 0.164 | 0.179 | 0.181 | 0.16 | 0.175 |
| GAUAUAGUGAUGUUAUAUAAGAAGGAGUUACGAGGACCGGUACGGCCGCCACUCGAAACGAGUGAUGAUUUGGGAGAUUGGGUUG [SSTryptA.O] | 0.38 | 0.33 | 0.35 | 0.339 | 0.265 |
| UUUUUGGAGAAUUAUAGUGAUGUUAUGAAGGAGGAUAUCUGGAGAUGGAGAAGGCCUAGUGGCUCAGCCAUGGAGGGUGGGUGGG [ExFMNA.aA] | 1.11 | 0.527 | 0.894 | 0.655 | 0.611 |
| CGCAGUGAUGUUGCGAAUAUAAUCACGGAAGGAGCGCGUGAAAACGCAGGUAGGUCGCCGUGUGGUAUGAUGGAAACAUCGUACC [Arginine A K4 12] | 0.222 | 0.207 | 0.243 | 0.206 | 0.191 |
| AGGUUUUGAUUAGGAUAUGCACUGAGGAGGAGAAUAUAGUGAUGUUAUAUAAGAGGAAGGAGUAGAGUAGAAGGGAUUGAGGUUU [SSFMNB.R] | 0.249 | 0.164 | 0.199 | 0.172 | 0.188 |
| UUUUUUAAUGGAAGGAGCGCGUGGGCGCAGUGAUGUUGCGCCCGACAUCACUUCAACUUAACGCAGGUAGGUCGCCAUUAUUUUU [Arginine B (Excl) V6] | 0.136 | 0.128 | 0.122 | 0.119 | 0.127 |
| GGGCUGGUGCUAGGAUAUGCGAUGAAUGCUCAGAAAACCUUGAGUCCGCAGUGAUGUUGCGGCACCGCAGAAGGAGCUAAGGCUC [Reorinraor] | 0.129 | 0.138 | 0.111 | 0.171 | 0.127 |
| UGUACCGAGUCAGGAUAUGACGACUAGUCAAAGACUGGUCGAAAAUCCAGUGAUGUUGGAAAUAAAUCAGAAGGGACUUGGUACU [FmnBS 16 #SwitchBubble #StaticStem] | 0.124 | 0.309 | 0.272 | 0.357 | 0.296 |
| CAAUGAGUAUAAGAUGAUAUCAUAACAGAAGGAGCGAGUGAUAACUCAGGUAGGUCGCUGAAUUUAUCGAGUGAUGUUCGAUAGA [whbob_SS_Arginine_A_sa117] | 0.202 | 0.162 | 0.226 | 0.193 | 0.176 |
| GGUAGCAUGGCGGCCGCCACUUUGCACCUUUUCUUUUCUUUUGGUGCUUCACGAGUGAUGUUCGUAAGGACCGGGCCAUGCUACC | 0.259 | 0.217 | 0.261 | 0.213 | 0.195 |
| GGUGGACUAGUCGAGUGAUGUUCGAGGCAUCGAGGACCGGUACGGCCGCCACUCGCAAAUCUACCGUGCGUUAACCACCAAAGUG [theeternabot_sameState_KL_Trp_A_37] | 0.295 | 0.152 | 0.304 | 0.317 | 0.344 |
| GGGUGGCAGACGGCCGCCACUCUUAGCAGCCAGUGAGUGAUGUUCGUGGCGGAGUGAUGUUCCUAGAGGACCGGGUUUGUUGUUC [Same State Tryptophan B GF 20] | 0.413 | 0.259 | 0.478 | 0.412 | 0.318 |
| GGAUUGCGUUCGGCCGCCACUAGACUACAUUCCACGCCCGACCCGUUUUUAAGUGAUGUUUAAACUAGGACCGGGAACCGAUUUC [theeternabot_exclusion_KL_Trp_B_33] | 0.435 | 0.291 | 0.395 | 0.388 |  |
| UGUGUUGUUGUGAUGUUUGGUGUUGCAGGGCAGGAUAUCGUAGAGGCGAGAAGGGCUUUUGUGCGGUAUGAGUGAUGUUUGUAGG [rrcgsmullin] | 0.197 | 0.218 | 0.27 | 0.369 | 0.25 |
| CAUACGCAUGGAGGAUAUGAGAUUACUCAUAUCAUUUAAUAUUCUCAGUGAUGUUGAGAUUUAGGCUCAGAAGGCCAUGUGUAUG [Ex FMN B 14] | 0.271 | 0.362 | 0.412 | 0.421 | 0.375 |
